# Reference: the nanobody polyreactivity screen of Harvey et al. (2022)
# Assay: yeast display, Sf9 membrane polyspecificity reagent, FACS + sequencing; frameworks hold sequencing errors
# In short: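 Sorting gates, low and high (top ~1%), were placed on anti-HA fluorescence to track expression and on streptavidin fluorescence to track reagent binding. A clone's polyreactivity label is taken from the gate it came out of. The reagent was 10% biotinylated, detergent-solubilized Sf9 membrane, applied for 1 hour at 4 °C to galactose-induced yeast display cells.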
row,Sequence,polyreactivity (PSR sort gate)
1,QVQLVESGGGLVQAGGSLRLSCAASGFIFDYYAMGWYRQAPGKEWELVAGITRDGSTNYADSVKGRFTISRDNAKNTVYLQMNSLKPEDTAVYYCAAGPPRTRYRNARFDYWGQGTQVTVSS,high polyreactivity
2,QVQLVESGGGLVQAGGSLRLSCAASGFIFEKYTMGWYRQAPGKERELVAAITWNGGSTYYADSVKGRFTISRDNAKNTVYLQMNSLIPEDTAVYYCARDDRDISGESGREGFLYDYWGQGTQVTVSS,low polyreactivity
3,QVQLVESGGGLVQAGGSLRLSCAASGFIFEPYAMGWYRQEPGKERELVAAISNSDSTNYADSVKGLFTISRDNAKNTVYLQMNSLKAEDTAVYYCNADFSKSYDYWGQGTQVTVSS,low polyreactivity
4,QVQLVESGGGLVQAGGSLRLSCAASGFIFESNAMGWYRQAPGKERELVAAITKRGGSTYYADSVKGRFTISRDNAKNTVYLQMNSLKPEDTAVYYCARYSSRYSSGYDYWGQGTQVTVSS,high polyreactivity
5,QVQLVESGGGLVQAGGSLRLSCAASGFIFESTAMGWYRQAPGKERELVAGISNGDSTDYADSVKGRFTISRDNAKNTCYLQMNSLNPEDTAVYYCNAELWYSPYSQTTVRYDYWGQVTQVTVSS,low polyreactivity
6,QVQLVESGGGLVQAGGSLRLSCAASGFIFEWNGMGWYRQAPGKERELVAAITWSGGSTYYADSVKGRFTISRDNAKNTVYLQMNSLKPEDTAVYYCNAYWKDDFEDGPGRRGMDYWGQGTQVTVSS,low polyreactivity
7,QVQLVESGGGLVQAGGSLRLSCAASGFIFEWYTMGWYRQAPGKERELVARISSDGSTTYADSVKGRFTISRDNAKNTVYLQMNSLNPEDTAVYYCAADVTYPGLIYIYDYWGQGTQVTVSS,low polyreactivity
8,QVQLVESGGGLVQAGGSLRLSCAASGFIFEYNAMGWYRQAPGKERELVAAITSSGGSTYYADSVKGRFTISRDNAKNTVYLKMYSLKPEDTAVYYCARVRRSAYYKDYYYWGQGTQVTVSS,high polyreactivity
9,QVQLVESGGGLVQAGGSLRLSCAASGFIFEYYAMGWYRQAPGKERELVAAISNGGGRTYYADSVKGRFTISRDNAKNTVYLQMNSLKPEDTAVYYCAAYWVYQRNSRTWEYDYWGQGTQVTVSS,high polyreactivity
10,QVQLVESGGGLVQAGGSLRLSCAASGFIFEYYAMGWYRQAPGKERELVAAISRGGRTNYADSVKGRFTISRDNAKNTVYLQMNSLKPEDTAVYYCARDYTFYRQVRKYGYWGQGTQVTVSS,high polyreactivity
11,QVQLVESGGGLVQAGGSLRLSCAASGFIFFKYVMGWYRQAPGKERELVAAISTTGGRTYYADSVKGRFTISRDNAKNTVYLQMNSLKPEDTAVYYCAADYPVWNHGFDYWGQGTQVTVSS,high polyreactivity
12,QVQLVESGGGLVQAGGSLRLSCAASGFIFFQYAMGWYRQAPGKERELVAAISGSGVTTYYADSVKGRFTISRDNAKNTVYLQMKSLKPEDTPVYYCAARPSGRGYYLLGYWGQGTQVTVSS,low polyreactivity
13,QVQLVESGGGLVQAGGSLRLSCAASGFIFFRNAMGWYRQAPGKERELVAAISSNGGRTYYADSVKGRFTISRDNAKNTVYLQMNSLTPEDTAVYYCAAANPGSEYDYWGQGTQVNVSS,high polyreactivity
14,QVQLVESGGGLVQAGGSLRLSCAASGFIFFRYAMGWYRQAPGKERELVAAISSSGGSTYYADSVKGRFTISRDNAKNTVYLQMNSLKPEDTAVYYCAAPRYRIFVGLGMDYWGQGTQVTVSS,high polyreactivity
15,QVQLVESGGGLVQAGGSLRLSCAASGFIFFRYAMGWYRQAPGKERELVAAISTRTGITYYADSVKGRFTISRDNAKNTVYLQMNSLKPEDTAVYYCNVLRSHSLYPFWKYDYWGQGTQVTVSS,high polyreactivity
16,QVQLVESGGGLVQAGGSLRLSCAASGFIFGANAMGWYRPAPGKESELVAAISWNGGRTYYADSVKWRFTISRDNAKNTVYLQMNSLKPEDTAVSYCAATGWYGLPTSYRVNYWGQGTQVTVSS,high polyreactivity
17,QVQLVESGGGLVQAGGSLRLSCAASGFIFGANTMGWYRQAPGKERELVATISWSGGSTYYADSVKGRFTISRDNAKNTVYLQMNSLKPEDTAVYYCAAPGVTYGFRSDYWGQGTQVTVSS,low polyreactivity
18,QVQLVESGGGLVQAGGSLRLSCAASGFIFGAYAMGWYRQAPGKERELVAAITKSGGRTYYADSVKGRFTISRDNAKNTVYLQMNSLKPEDTAVYFCAAVTRYPREYDYWGQGTQVTVSS,high polyreactivity
19,QVQLVESGGGLVQAGGSLRLSCAASGFIFGAYAMGWYRQAPGKERELVAAITRSGGNTYYADSVKGRFTISRDNAKNTVYLQMNSLKPEDTAVYYCNVVGVYHYEDYYYWGQGTQVTVSS,high polyreactivity
20,QVQLVESGGGLVQAGGSLRLSCAASGFIFGFYAMGWYRQAPGKERELVAAITSDGGTYYADSVKGRFTISRDNAKNTVYLQMNSLKPEDTAVYYCAADVLYEVFSWYVGYDYWGQGTQVTVSS,low polyreactivity
21,QVQLVESGGGLVQAGGSLRLSCAASGFIFGGYARGWYRQAPGKEREFVAAIRQRGGSTYYADSVKGRFTISRDNAKNTVYLQMNSLKPEDTAVYYCAAEPNTQWFDYWGQGTQVTVSS,high polyreactivity
22,QVQLVESGGGLVQAGGSLRLSCAASGFIFGHYVMGWYRQAPGKERELVAAISVGGGRTYYADSVKGRFTISRDNAKNTVYLQMNSLKPEDTAVYYCRSYGYDYWGQGTQVTVSS,high polyreactivity

row,Sequence,polyreactivity (PSR sort gate)
1,QVQLVESGGGLVQAGGSLRLSCAASGFIFGKFAMGWYRPAPGKERELVAAITSDGRTYYADSVKGRFTISRDNAKNTVYLQMNSLKPEDTAVYYCAVDYYWYWYSGYDDYWGQGTQVTVSS,high polyreactivity
2,QVQLVESGGGLVQAGGSLRLSCAASGFIFGNYVLGWSRQAPGKERELVAAISESGSRTYYADSVKGRFTISRDYAKKTVYLQMNSLKPEDTAVYYCAAALFSYYGEYDYWGQGTQVTVSS,low polyreactivity
3,QVQLVESGGGLVQAGGSLRLSCAASGFIFGPNAMGWYRQAPGKERELVAAISWIGSSTYYADSVKGRFTISRDNAKNTVYFQMNSLKPQDTAVYYCAADSSERRLMDFDYWGQGTQVTVSS,low polyreactivity
4,QVQLVESGGGLVQAGGSLRLSCAASGFIFGQNDMGWYRQAPGKERELVAAISSDGSTYYADSVKGRFTISRDNAKNTVYLQMNSLKPEDTAVYYCAAEYSWYYYYLYVGEYDYWGQGTQVTVSS,low polyreactivity
5,QVQLVESGGGLVQAGGSLRLSCAASGFIFGRYAMGWYRQAPGKERELVAAITRSGGTTYYADSVKGRFTISRDNAKKTVYLQMYSLKPEDTAVYYCAAPRIYYTDDYWGQGTQVTVSS,high polyreactivity
6,QVQLVESGGGLVQAGGSLRLSCAASGFIFGRYTMGWSRQAPGKEGELVAAISGSDVSTYYADSVKGRFTISRDNAKNTVYLQLNSVKPEDTAVYYCAADAPWAYYEYDYWGQGTQVTVSS,low polyreactivity
7,QVQLVESGGGLVQAGGSLRLSCAASGFIFGSNAMGWYRQAPGKERELVATITKRGGTTYYADSVKGRFTISRDNAKNTVYLQMNSLKPEDTAVYYCNRSGPGFYSTRFNYWGQGTQVTVSS,high polyreactivity
8,QVQLVESGGGLVQAGGSLRLSCAASGFIFGSYAMGWYRQAPGKERELVAAITSSGITYYADSVKGRFTISRDNAKNTVYLQMNSLKPEDTAVYYCAAEGSTYQGAPGVYYWGQGTQVTVSS,high polyreactivity
9,QVQLVESGGGLVQAGGSLRLSCAASGFIFGSYTMGGYRQAPGTERELVAVITCSGSSTYYADSVKGRFTISRDNAKNTVYLQMNSLKPADTAVYYCNAVKFGGYDYWGQGTQVTVSS,high polyreactivity
10,QVQLVESGGGLVQAGGSLRLSCAASGFIFGVYAMGWYRQAPAKERELDAAISYRTGTTYYADSVKGRFTISRDNAKNTVYLQMNSLKPEDTAVYYCAAKSRAAVRKYGSEYWGQGTQVTVSS,high polyreactivity
11,QVQLVESGGGLVQAGGSLRLSCAASGFIFGVYPMGWYRQAPGKERELVAAISRSGGSTYYADSVKGRFTISRDSAKNTVYLQMNSLNPEDTAVYYCATHVSLYGKGYYYWGQGTQVTVSS,high polyreactivity
12,QVQLVESGGGLVQAGGSLRLSCAASGFIFGWNAMGWYRQAPGKVREFVAAITSSGTSTYYADSVKGRFTISRDNAKNTVYLQMNSLKPEDTAVYYCAADVIFTWLAYSTEYDYWGQGTQVTVSS,low polyreactivity
13,QVQLVESGGGLVQAGGSLRLSCAASGFIFGYNAMGWYRQAPGKERELVAAISGSGGRTYYADSVKGRFTISRDNAKNTVYLQMNSLIPEDTAVYYCAVADRRGLGYWGQGTQVTVSS,high polyreactivity
14,QVQLVESGGGLVQAGGSLRLSCAASGFIFGYNAMGWYRQAPGKERELVASITYRGGRTYADSVKGRFTISRDNAKNTVYLQMNSLKPEDTAVYYCAAVRHVYVGGFDYWGQGTQVTVSS,high polyreactivity
15,QVQLVESGGGLVQAGGSLRLSCAASGFIFGYYAMGWYRQAPGKEREFVAAISARSGRTYYADSVKGRFTISRDNAKNTVYLQMNSLKPEDTAVYYCNTAYAYSGRYDYWGQGTQVTVSS,high polyreactivity
16,QVQLVESGGGLVQAGGSLRLSCAASGFIFGYYAMGWYRQAPGKERELVAAISSGSITTYADSVKGRFTISRDNAKNTVYLQMNSLKPEDTAVYYCNAVRWFFTFVSSSSGVGHGYWGQGTQVTVSS,low polyreactivity
17,QVQLVESGGGLVQAGGSLRLSCAASGFIFGYYAMGWYRQAPGKERELVAAISSRGGSTYYADSVKGRFTISRDNAKNTVYLQMNSLIPEDTAVYYCAVRLVSFRHNFGQYDYWGQGTQLTVSS,high polyreactivity
18,QVQLVESGGGLVQAGGSLRLSCAASGFIFGYYAMGWYRQAPGKERELVAGISWGGARTYYADSVKGRFTISRDNAKNTVYLQMNSLKPEDTAVYYCAATHYGHSISYWFDYWGQGTQVTVSS,high polyreactivity
19,QVQLVESGGGLVQAGGSLRLSCAASGFIFHPYAMGWYRQAPGKERELVAAISWSGDGTYYADSVKGRFTISRDNAKNTVYLQMNSLKPEDTAVYYCNAGFYRSYYKSPMGYWGQGTQVTVSS,low polyreactivity
20,QVQLVESGGGLVQAGGSLRLSCAASGFIFHRYAMGWYRQAPGKERELVASITRSGGSTYYADSVKGRFTISRDNAKNTVYLQMNSLKPEDTAVYYCAAQLPSYYKYPRHDYWGQGTQVTVSS,high polyreactivity
21,QVQLVESGGGLVQAGGSLRLSCAASGFIFHVYAMGWYRQAPGKERELVARITSSGGNTFYADSVKGRFTISRDNAKNTVYLQMNSLKPEDTAVYYCAKRYRYSVGWPVKNSAFGYWGQGTQVTVSS,low polyreactivity
